From patent CN101022829A (GENENTECH INC, dated 2007)
Blank lines part the entries; values can stand above or below the molecule they belong to.

Key:
human CD20 (human) [1] = biological target: T1, human CD20 (human) (UniProt P11836); experiment: cell-based or functional assay
T1 sequence (looked up): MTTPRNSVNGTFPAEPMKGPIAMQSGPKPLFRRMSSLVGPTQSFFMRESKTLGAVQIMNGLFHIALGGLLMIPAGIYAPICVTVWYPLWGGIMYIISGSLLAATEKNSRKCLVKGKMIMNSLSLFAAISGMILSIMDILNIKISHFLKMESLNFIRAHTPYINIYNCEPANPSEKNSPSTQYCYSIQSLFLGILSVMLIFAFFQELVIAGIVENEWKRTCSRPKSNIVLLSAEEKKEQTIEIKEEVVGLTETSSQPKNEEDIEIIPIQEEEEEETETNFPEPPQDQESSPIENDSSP

human CD20 (human) [2] = biological target: T1, human CD20 (human); experiment: Scatchard, competition with 125I-2H7.v16 on WIL2-S cells, n=3
human CD20 [3] = biological target: T2, human CD20 (human, UniProt P11836 1-297); experiment: cell ELISA, WIL2-S; v16 as comparator, normalised to chimera
T2 construct: whole, on cells; also called Bp35
T2 sequence (looked up): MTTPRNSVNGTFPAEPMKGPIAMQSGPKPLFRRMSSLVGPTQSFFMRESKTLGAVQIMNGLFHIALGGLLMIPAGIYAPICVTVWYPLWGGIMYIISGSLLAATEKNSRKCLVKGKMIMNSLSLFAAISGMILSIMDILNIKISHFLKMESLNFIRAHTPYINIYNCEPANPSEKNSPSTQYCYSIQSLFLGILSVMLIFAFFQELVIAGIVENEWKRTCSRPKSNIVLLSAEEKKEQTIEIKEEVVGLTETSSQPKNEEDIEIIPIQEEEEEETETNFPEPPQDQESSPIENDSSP

human CD20 [4] = biological target: T2, human CD20; experiment: Scatchard, competition with 125I-2H7.v16 on WIL2-S cells, n=4

ADCC, EC50(variant)/EC50(2H7.v16) (human CD20 (human) [1]): 5.3
ADCC, EC50(variant)/EC50(RITUXAN) (human CD20 (human) [1]): 1
CDC, EC50(variant)/EC50(RITUXAN) (human CD20 (human) [1]): 1
Kd (human CD20 (human) [2]): 0.99 nM
Molecule: RITUXAN (rituximab) (antibody)

relative binding (ratio to v6.8) (human CD20 [3]): 1.2
B1: 2H7.v138 (antibody, human IgG1, kappa, V domains shown)
VH: EVQLVESGGGLVQPGGSLRLSCAASGYTFTSYNMHWVRQAPGKGLEWVGAIYPGNGATSYNQKFKGRFTISVDKSKNTLYLQMNSLRAEDTAVYYCARVVYYSASYWYFDVWGQGTLVTVSS
VL: DIQMTQSPSSLSASVGDRVTITCRASSSVSYLHWYQQKPGKAPKPLIYAPSNLASGVPSRFSGSGSGTDFTLTISSLQPEDFATYYCQQWAFNPPTFGQGTKVEIKR

Kd (human CD20 [4]): 1.22 nM
B2: 2H7.v73 (antibody, V domains shown)
VH: EVQLVESGGGLVQPGGSLRLSCAASGYTFTSYNMHWVRQAPGKGLEWVGAIYPGNGDTSYNQKFKGRFTISVDKSKNTLYLQMNSLRAEDTAVYYCARVVYYSASYWYFDVWGQGTLVTVSS
VL: DIQMTQSPSSLSASVGDRVTITCRASSSVSYLHWYQQKPGKAPKPLIYAPSNLASGVPSRFSGSGSGTDFTLTISSLQPEDFATYYCQQWSFNPPTFGQGTKVEIKR
